Measured values from patent US12049482B2, “Molecular switch-mediated control of engineered cells” (THE GENERAL HOSPITAL CORPORATION, priority 2017, dated 2024).
One block for each molecule: values may come before it.

Columns and labels:
[1] = target: CRBN (Homo sapiens, UniProt Q96SW2); assay: EGFP/mCherry reporter of zinc finger degron sequences, IMiD titration; type: cell-based; parameters: endogenous in cells; conditions: HEK239T cells, drug titration, 20 h
Experimental: A hybrid sequence of two distinct CRBN substrates, IKZF3 and ZFP91, was constructed and examined for activity within an “OFF-switch” system of the instant disclosure. In such experiments, reporter constructs containing zinc finger sequences were expressed in HEK239T cells via lentiviral transduction, after which the cells were treated with a titration of (IMiD) drug concentrations for 20 h. Flow cytometry was used to measure the EGFP/mCherry ratio normalized to the average of three DMSO treated controls. Data shown in FIG. 10 are representative of two experimental replicates (technical replicates=0, experimental replications=2).

[2] = system: CRBN; assay: Internalization and degradation of CD28-degron-GFP in 293T cells; type: cell-based, human; conditions: 10 μM pomalidomide, 293T cells with biallelic CRBN exon 5 disruption
Experimental: Transduced cells were incubated with a range of Pomalidomide concentrations or DMSO for 20 hours. Cells were analyzed by flow cytometry for eGFP and mCherry fluorescence. 1000 mCherry+ cells were analyzed per sample, and the geometric mean of the per-cell eGFP/mCherry ratio was calculated in Flowjo. In Pomalidomide dose titration studies, the EC50 was calculated by non-linear regression in Prism. Experiments were performed in triplicate. In some cases cell surface protein expression was assayed in parallel with the above reporter assay; cells were stained with anti-CD28-BV421 antibody (BD Biosciences 562613) at a 1:50 dilution in FACS buffer (PBS+2% FCS+2 mM EDTA) for 10 minutes on ice. Cells were washed with FACS buffer and analyzed by flow cytometry.

[3] = system: IKZF3aa130-189; assay: BRET assay, dimerization of IKZF3aa130-189 with CRBN or minCRBN variants; type: cell-based, human; conditions: pomalidomide dose-response
IKZF3aa130-189, sequence (Q9UKT9 130-189 limits assumed, one chain of several): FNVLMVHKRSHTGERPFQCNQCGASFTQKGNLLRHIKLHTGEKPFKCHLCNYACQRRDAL
Experimental: Specifically, CRBN deletion variants were engineered to retain binding to Pom/IKZF3 but not DDB1/CUL4. Four deletion variants were generated in CRBN that removed the DDB1-binding domain, as shown in the middle image (NTD is the N-terminal domain; LLP1 is Lon-like protease domain 1 (split into LLP1-N and LLP1-C regions); TBD is the Thalidomide binding domain). At middle, BRET assays were performed upon 293T cells harboring bialleleic CRISPR/Cas9 disruption of endogenous CRBN (293T-CRBNΔe5), to assess dimerization between IKZF3aa130-189 and CRBN or minCRBN variants (dose-response data shown are CRBN, minCRBN1, minCRBN2, minCRBN3 and minCRBN4). […] Pomalidomide-dependent dimerization was observed between IKZF3aa130-189-HaloTag and CRBN-Nanoluciferase (NLuc) or minCRBN2-4-NLuc. […] 1 day after transfection, cells were exposed to 1 μM pomalidomide for the number of hours indicated and GFP and mCherry fluorescence was measured by flow cytometry (eGFPmCherry levels were detected as 0.5 or less for the CRBN trace).
(§1) 293T cells were co-transfected with pFC14K and pFC32K plasmids expressing IKZF3-HaloTag and CRBN-Nanoluciferase fusion proteins and incubated overnight. Cells were then trypsinized and seeded into 96 well plates, at 40,000 cells per well. The BRET assay was performed per manufacturer's instructions (Promega™). In brief, cells were incubated for 2 hours with varying concentrations of Pomalidomide or DMSO, 10 μM MG132, and 100 nM HaloTag NanoBRET 618 Ligand. NanoBRET Nano-Glo substrate was added and donor (460 nm) and acceptor (618 nm) emission were measured within 10 minutes (EnVision, Perkin Elmer). Mean corrected milliBRET units (mBU) was calculated.
Tested forms of minimal CRBN included minCRBN1, minCRBN2, minCRBN3 and minCRBN4, each of which were aligned against the wild-type CRBN (FIG. 1; all tested minCRBNs lacked the DDB1-binding domain—minCRBN1 comprised amino acids 339-442 of CRBN (including the TBD); minCRBN2 comprised amino acids 317-442 of CRBN (including TBD and an N-terminal extended sequence relative to minCRBN1); minCRBN3 included all CRBN sequence other than amino acids 194-207 (deletion of the DDB1-binding domain); and minCRBN4 included all sequences other than amino acids 187-260 (deletion of the DDB1-binding domain)).

[4] = system: CD19scFv-CD28-IKZF3; assay: BRET, split receptor: membrane-tethered or untethered minCRBN3 paired with CD19scFv-CD28-IKZF3; type: cell-based, human; conditions: 293T cells, 10 μM MG132, 2 hours of drug treatment
CD19scFv-CD28-IKZF3, sequence (as listed by the source, one chain of several): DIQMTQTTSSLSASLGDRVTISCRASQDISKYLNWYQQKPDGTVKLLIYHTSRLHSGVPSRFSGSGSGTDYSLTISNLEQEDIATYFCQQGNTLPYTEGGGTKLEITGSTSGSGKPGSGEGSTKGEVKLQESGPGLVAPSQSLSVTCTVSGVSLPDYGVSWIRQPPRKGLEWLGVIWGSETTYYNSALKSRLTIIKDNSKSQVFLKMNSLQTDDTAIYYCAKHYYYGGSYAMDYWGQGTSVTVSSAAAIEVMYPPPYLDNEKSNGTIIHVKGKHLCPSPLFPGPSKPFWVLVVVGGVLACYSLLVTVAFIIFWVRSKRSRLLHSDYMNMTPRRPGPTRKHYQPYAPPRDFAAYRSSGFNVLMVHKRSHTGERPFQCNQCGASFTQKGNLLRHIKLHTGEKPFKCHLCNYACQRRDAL
Experimental: as §1
Specific minCRBN-presenting polypeptide tethers to the plasma membrane that were tested included: (1) a CD8/CD28 system in which about 36 amino acids of TMD and cytosolic sequence connected to the co-stimulatory/minCRBN domains of the thereby membrane-tethered polypeptide; (2) a PD1 Y F ITAM/ITSM construct, in which minCRBN was tethered to the plasma membrane via a TMD and cytosolic domain of approximately 100 amino acids in length; and (3) a LYN-CD28 construct, in which membrane tethering was achieved via myristoyl/palmitoylation.

CRBN (Homo sapiens, UniProt Q96SW2), sequence (Q96SW2 whole entry): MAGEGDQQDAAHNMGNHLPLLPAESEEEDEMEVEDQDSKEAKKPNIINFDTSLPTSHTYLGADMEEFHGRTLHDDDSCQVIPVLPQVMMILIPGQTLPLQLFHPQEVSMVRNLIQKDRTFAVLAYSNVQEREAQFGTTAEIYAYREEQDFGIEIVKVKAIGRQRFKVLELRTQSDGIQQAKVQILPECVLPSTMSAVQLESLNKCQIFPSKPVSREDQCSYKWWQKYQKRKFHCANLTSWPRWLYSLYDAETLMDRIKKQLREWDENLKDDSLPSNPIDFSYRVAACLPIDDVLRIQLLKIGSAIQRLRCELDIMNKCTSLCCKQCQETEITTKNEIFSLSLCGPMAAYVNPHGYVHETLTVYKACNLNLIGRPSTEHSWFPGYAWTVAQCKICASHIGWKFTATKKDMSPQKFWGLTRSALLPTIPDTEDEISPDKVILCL

Molecule: ZFP91/IKZF3 hybrid: ZFP91 amino acids 400-410 + IKZF3 amino acids 157-168, SEQ ID NO: 32 (LQCEICGFTCRQKGNLLRHIKLH)
IMiD sensitivity (EGFP/mCherry ratio normalized to DMSO) [1]: greater IMiD sensitivity than either the ZFP91 degron sequence alone or the IKZF3 degron sequence alone

IMiD sensitivity (EGFP/mCherry ratio normalized to DMSO) [1]: minimal IMiD sensitivity/responsiveness
Molecule: IKZF3/ZFP91: Reverse hybrid, IKZF3 amino acids 146-156 + ZFP91 amino acids 411-422, SEQ ID NO: 33 (FQCNQCGASFTQKASLNWHMKKH)

Molecule: CD28-degron: In frame fusion of full length CD28, a SG linker, and IKZF3 (amino acids 130-189); SEQ ID NO: 82
degradation (normalized GFP levels) [2]: no significant decline in normalized GFP levels

B1: minCRBN3: All CRBN sequence other than amino acids 194-207 (deletion of the DDB1-binding domain), SEQ ID NO: 3 (protein)
chain: AGEGDQQDAAHNMGNHLPLLPESEEEDEMEVEDQDSKEAKKPNIINFDTSLPTSHTYLGADMEEFHGRTLHDDDSCQVIPVLPQVMMILIPGQTLPLQLFHPQEVSMVRNLIQKDRTFAVLAYSNVQEREAQFGTTAEIYAYREEQDFGIEIVKVKAIGRQRFKVLELRTQSDGIQQAKVQILPECVLPSTYDAETLMDRIKKQLREWDENLKDDSLPSNPIDFSYRVAACLPIDDVLRIQLLKIGSAIQRLRCELDIMNKCTSLCCKQCQETEITTKNEIFSLSLCGPMAAYVNPHGYVHETLTVYKACNLNLIGRPSTEHSWFPGYAWTVAQCKICASHIGWKFTATKKDMSPQKFWGLTRSALLPTIPDTEDEISPDKVILCL
pomalidomide-dependent dimerization with IKZF3 degron (mBU) [3]: pomalidomide-dependent interactions
pomalidomide-dependent interaction with IKZF3 degron split receptor (BRET) [4]: to a significantly lesser extent than any of the various plasma membrane-tethered versions
